We go through 3 molecules from US20120058906A1 (published 2012).

The target of test [1] is T1, rHuman Erythropoietin R/Fc Chimera, CF (R&D Systems Cat#963-ER) (human, UniProt P19235 25-250).
T1 construct: Bought Fc chimera; also called EPO R/Fc; Epo R; Fc part of the bought chimera not given
T1 sequence: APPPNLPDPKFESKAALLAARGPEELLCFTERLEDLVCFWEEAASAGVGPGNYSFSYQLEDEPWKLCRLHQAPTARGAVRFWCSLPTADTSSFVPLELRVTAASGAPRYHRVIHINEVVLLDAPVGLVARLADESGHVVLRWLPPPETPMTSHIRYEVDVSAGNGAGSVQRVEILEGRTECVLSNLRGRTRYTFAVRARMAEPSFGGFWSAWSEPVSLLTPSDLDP
Description: ECL (MSD Multi-Spot) binding assay, antigen spotted on plate; Fab 15 nM; blank spot 261.

Test [2] addresses T2, Recombinant Human DLL4 (R&D Systems Cat#1506-D4/CF) (human, UniProt Q9NR61 27-524).
T2 construct: Bought recombinant protein; also called delta-like protein 4; rHuman DLL4
The description is as above.

The target in test [3] is T3, rHuman Erythropoietin R/Fc Chimera, CF (R&D Systems Cat#963-ER) (human, UniProt P19235 25-250).
T3 construct: Bought Fc chimera; also called EPO R/Fc; EPOR; Fc part of the bought chimera not given
T3 sequence: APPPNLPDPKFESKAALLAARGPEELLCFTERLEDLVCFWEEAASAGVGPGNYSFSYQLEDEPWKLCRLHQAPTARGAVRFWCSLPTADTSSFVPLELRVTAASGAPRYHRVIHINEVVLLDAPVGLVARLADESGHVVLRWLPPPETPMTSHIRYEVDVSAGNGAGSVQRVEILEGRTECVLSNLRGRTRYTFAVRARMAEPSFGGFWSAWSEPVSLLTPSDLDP
Description: MSD ECL titration, Fab 148.9 nM, blank 218.

For test [4], the target named is T4, rHuman HGF R/c-MET/Fc Chimera, CF (R&D Systems Cat#358-MT/CF) (human, UniProt P08581 25-932).
T4 construct: Bought Fc chimera; also called HGF R/Fc; Fc part of the bought chimera not given
The experiment in a line: MSD ECL titration, Fab 148.9 nM, blank 218.

The target of test [5] is T5, rHuman IGF-1 sR (insulin-like growth factor-1 soluble receptor), CF (R&D Systems Cat#391-GR) (human, UniProt P08069 31-932).
T5 construct: Bought soluble receptor; also called IGF-R1
Description: MSD ECL titration, Fab 148.9 nM, blank 218.

Test [6] has as its target T6, rHuman ErbB2/Fc Chimera, CF (R&D Systems Cat#1129-ER) (human, UniProt P04626 23-652).
T6 construct: Bought Fc chimera; also called HER2/neu; Fc part of the bought chimera not given
The experiment in a line: MSD ECL titration, Fab 148.9 nM, blank 218.

The target of test [7] is T7, rHuman Notch-1/Fc Chimera, CF (R&D Systems Cat#3647-TK) (human, UniProt P46531 19-526).
T7 construct: Bought Fc chimera; Fc part of the bought chimera not given
The experiment in a line: MSD ECL titration, Fab 148.9 nM, blank 218.

In test [8] the target is T8, rHuman CD44/Fc Chimera, CF (R&D Systems Cat#3660-CD) (human, UniProt P16070 21-220).
T8 construct: Bought Fc chimera; Fc part of the bought chimera not given
Description: MSD ECL titration, Fab 148.9 nM, blank 218.

Test [9] deals with T9, rHuman P-Cadherin/Fc Chimera, CF (R&D Systems Cat#861-PC) (human, UniProt P22223 108-654).
T9 construct: Bought Fc chimera; Fc part of the bought chimera not given
Description: MSD ECL titration, Fab 148.9 nM, blank 218.

The target of test [10] is T10, Recombinant Human DLL4 (R&D Systems Cat#1506-D4/CF) (human, UniProt Q9NR61 27-524).
T10 construct: Bought recombinant protein; also called rHuman DLL4; delta-like protein 4
The experiment in a line: MSD ECL titration, Fab 148.9 nM, blank 218.

Test [11] addresses T11, rHuman EGF R/Fc Chimera, CF (R&D Systems Cat#344-ER) (human, UniProt P00533 25-645).
T11 construct: Bought Fc chimera; Fc part of the bought chimera not given
The experiment in a line: MSD ECL titration, Fab 148.9 nM, blank 218.

Test [12] concerns the target T12, rHuman Notch-1/Fc Chimera, CF (R&D Systems Cat#3647-TK) (human, UniProt P46531 19-526).
T12 construct: Bought Fc chimera; not shown: Fc of the bought chimera
The experiment in a line: ECL (MSD multi-spot), antigen on plate, Fab 10 nM.

The target in test [13] is T13, rHuman HGF R/c-MET/Fc Chimera, CF (R&D Systems Cat#358-MT/CF) (human, UniProt P08581 25-932).
T13 construct: Bought Fc chimera; also called HGF R/Fc; not shown: Fc of the bought chimera
The experiment in a line: ECL (MSD multi-spot), antigen on plate, Fab 10 nM.

For test [14], the target named is T14, rHuman IGF-1 sR (insulin-like growth factor-1 soluble receptor), CF (R&D Systems Cat#391-GR) (human, UniProt P08069 31-932).
T14 construct: Bought soluble receptor; also called IGF-R1
Description: ECL (MSD multi-spot), antigen on plate, Fab 10 nM.

The target of test [15] is T15, Recombinant Human DLL4 (R&D Systems Cat#1506-D4/CF) (human, UniProt Q9NR61 27-524).
T15 construct: Bought recombinant protein; also called delta-like protein 4
Description: ECL (MSD multi-spot), antigen on plate, Fab 10 nM.

The target in test [16] is T16, rHuman ErbB2/Fc Chimera, CF (R&D Systems Cat#1129-ER) (human, UniProt P04626 23-652).
T16 construct: Bought Fc chimera; also called HER2/neu; not shown: Fc of the bought chimera
Description: ECL (MSD multi-spot), antigen on plate, Fab 10 nM.

Test [17] concerns the target T17, rHuman Erythropoietin R/Fc Chimera, CF (R&D Systems Cat#963-ER) (human, UniProt P19235 25-250).
T17 construct: Bought Fc chimera; also called EPO R/Fc; Epo R; not shown: Fc of the bought chimera
T17 sequence: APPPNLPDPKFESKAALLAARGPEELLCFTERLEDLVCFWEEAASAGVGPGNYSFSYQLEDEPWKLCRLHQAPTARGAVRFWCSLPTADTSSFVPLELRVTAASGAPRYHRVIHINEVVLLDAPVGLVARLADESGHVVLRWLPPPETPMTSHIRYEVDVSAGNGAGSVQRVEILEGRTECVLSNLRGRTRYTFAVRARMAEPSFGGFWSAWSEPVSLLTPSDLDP
Description: ECL (MSD multi-spot), antigen on plate, Fab 10 nM.

Test [18] deals with T18, rHuman CD44/Fc Chimera, CF (R&D Systems Cat#3660-CD) (human, UniProt P16070 21-220).
T18 construct: Bought Fc chimera; not shown: Fc of the bought chimera
Description: ECL (MSD multi-spot), antigen on plate, Fab 10 nM.

Test [19] concerns the target T19, rHuman EGF R/Fc Chimera, CF (R&D Systems Cat#344-ER) (human, UniProt P00533 25-645).
T19 construct: Bought Fc chimera; also called ErbB-1; not shown: Fc of the bought chimera
The experiment in a line: ECL (MSD multi-spot), antigen on plate, Fab 10 nM.
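Note: blank spot per well as comparator with Hit at signal to blank ratio of 4 or more.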

B1: Fab VH6-1_IGHD3-3*01_IGHJ4*01 & V4-3_IGLJ4*01 (Fab, V domains shown)
VH: QVQLQQSGPGLVKPSQTLSLTCAISGDSVSSNSAAWNWIRQSPSRGLEWLGRTYYRSKWYNDYAVSVKSRITINPDTSKNQFSLQLNSVTPEDTAVYYCAREYYDFWSGYYTDYFDYWGQGTLVTVSS
VL: QPVLTQPTSLSASPGASARLTCTLRSGINLGSYRIFWYQQKPESPPRYLLSYYSDSSKHQGSGVPSRFSGSKDASSNAGILVISGLQSEDEADYYCMIWHSSASFVFGGGTQLIIL
notes: Tested as a Fab made in E. coli; also called IGHV6-1*01
As for B1, the results for the ECL signal in [1] and in test [2] were 397 and 690, respectively.

B2: Fab VH1-46_IGHD6-6*01_IGHJ1*01 & L6_IGKJ1*01 (Fab, V domains shown)
VH: QVQLVQSGAEVKKPGASVKVSCKASGYTFTSYYMHWVRQAPGQGLEWMGIINPSGGSTSYAQKFQGRVTMTRDTSTSTVYMELSSLRSEDTAVYYCAREEYSSSSAEYFQHWGQGTLVTVSS
VL: not shown
notes: Expressed in E. coli as Fab: heavy chain with CH1 plus Flag and His tags from Plasmid A, kappa light chain constant region from Plasmid C; also called Fab No. 1
With B2, the ECL signal in test [3] was 373; in [4], 205; in test [5], 322; in test [6] it was 247; in test [7], 375; in [8], 348. The ECL signal amounted to 687 in test [9], 16300 in test [10] and 290 in test [11].

B3: Fab VH1-46_IGHD6-6*01_IGHJ1*01_S102A_S103P_S104F & L6_IGKJ1*01_S30N (Fab, V domains shown)
VH: QVQLVQSGAEVKKPGASVKVSCKASGYTFTSYYMHWVRQAPGQGLEWMGIINPSGGSTSYAQKFQGRVTMTRDTSTSTVYMELSSLRSEDTAVYYCAREEYAPFSAEYFQHWGQGTLVTVSS
VL: EIVLTQSPATLSLSPGERATLSCRASQSVNSYLAWYQQKPGQAPRLLIYDASNRATGIPARFSGSGSGTDFTLTISSLEPEDFAVYYCQQRSNWPPWTFGQGTKVEIKR
notes: Fab
As to B3, the ECL signal in test [12] was found to be 253 ECL signal; in test [13] it was 239 ECL signal; in [14] it was 233 ECL signal; in test [15], 33400 ECL signal; in [16], 274 ECL signal; in [17] it was 420 ECL signal. In addition, the ECL signal in test [18] is 286 ECL signal; in test [19], 245 ECL signal.
